Results from US7138236.

System: p53, unphosphorylated (recombinant full-length)

Substance | in vitro kinase assay (32P incorporation, autoradiography) | phosphorylation site mapping (tryptic/Asp-N peptides, Edman degradation) | kinase assay of chromatographic fractions, Western blot with p53 Ser15-specific antibodies
ATM (A-T mutated) protein purified from HeLa cell nuclear extract | several independently purified ATM preparations were consistently found to phosphorylate p53 with high efficiency | the sites of phosphorylation correspond to p53 residues Ser-15 and Thr-18 | 
ATR (FRP-1) purified from HeLa nuclear extract |  |  | this residue is also phosphorylated by a kinase activity associated with ATR
